# Assays:
# [1] = test system: cancer stem cells from breast cancer cell lines; assay: Drug exposure of breast cancer stem cell clones; format: cell-based; details: selected clones
# Protocol: Breast cancer cells are cultured in the presence of each or combinations of the anti-cancer agents 5-FU, Methothrexate, and Cytarabine. […] Cells are passaged at least 5 times in high concentrations of anti-cancer drugs. […] Breast cancer cells were subjected to rounds of exposure to 5-fluorouracil (5-FU), methotrexate, and cytarabine.
# [2] = target: T1, Fibronectin-Fragment III-C (FN-IIIC) (Homo sapiens, UniProt P02751); assay: SELDI ProteinChip (PS1) positive control, FN-IIIC and SP; format: binding; details: FN-IIIC covalently coated
# T1 construct: 20 ng fibronectin, fragment III-C (positive control); purchased Sigma (St Louis, Mo.)
# Protocol: HGFIN-SP interaction was studied by pre-treating the PS1 chips with 50% acetonitrile for 3 minutes. After this, the chips were incubated for 45 minutes with the following: 2.5 μg HGFIN (experimental sample), anti-Id2, an unrelated IgG regarding its ability to complex with SP and was therefore treated as a negative control, rabbit anti-SP (positive control) or 20 ng fibronectin, fragment III-C (positive control). The arrays were blocked for 25 minutes with 1 M ethanolamine and washed with PBS+0.5% TRITON-X (2×) and a final PBS wash step. After this the chips were washed with PBS+TRITON-X, PBS, rinsed with 5 mM HEPES and then dried. CHCA was applied and the non-covalently bound SP was detected with the SELDI-Time of Flight Mass spectrometer as described for the profiling studies for HGFIN.
# Fibronectin has been reported to bind SP. Therefore, this property of fibronectin was used as a positive control for SP interaction on the SELDI system. […] Similar results were shown with another positive control: rabbit anti-SP (covalently bound) and SP. No peak was detected in two negative controls, which consisted of bovine serum albumin or an unrelated antibody (anti-Id2) covalently bound to the surface of PS1.
# HGFIN = target: T2, HGFIN (Homo sapiens, UniProt Q14956); assay: SELDI ProteinChip (PS1) HGFIN-SP interaction; format: binding; details: HGFIN covalently bound to PS1 chip, SP added
# T2 construct: made in house
# T2 sequence (Q14956 23-560 isoform Q14956-2): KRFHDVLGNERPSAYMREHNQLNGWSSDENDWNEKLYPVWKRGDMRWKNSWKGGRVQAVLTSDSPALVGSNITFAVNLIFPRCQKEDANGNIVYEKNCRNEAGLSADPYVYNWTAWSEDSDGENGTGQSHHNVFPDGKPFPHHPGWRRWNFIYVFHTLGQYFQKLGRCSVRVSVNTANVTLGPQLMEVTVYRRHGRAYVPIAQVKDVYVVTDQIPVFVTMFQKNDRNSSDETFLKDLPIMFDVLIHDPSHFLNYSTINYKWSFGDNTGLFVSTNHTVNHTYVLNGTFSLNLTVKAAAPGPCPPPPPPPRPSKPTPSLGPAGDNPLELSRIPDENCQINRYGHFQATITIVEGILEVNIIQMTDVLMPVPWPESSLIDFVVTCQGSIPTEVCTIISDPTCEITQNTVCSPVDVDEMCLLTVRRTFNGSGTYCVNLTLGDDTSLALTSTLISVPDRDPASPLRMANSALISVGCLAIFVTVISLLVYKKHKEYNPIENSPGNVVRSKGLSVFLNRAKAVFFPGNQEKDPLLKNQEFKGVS
# Protocol: Before studying the interaction between SP and HGFIN, each protein was profiled by the Surface Enhanced Laser Desorption/Ionization (SELDI) ProteinChip Array technology (Ciphergen Biosystems Inc., Fremont, Calif.). Normal phase (NP1) arrays were used for profiling and preactivated surface arrays (PS1) for HGFIN-SP interaction. For profiling studies, 2 μg of purified HGFIN or 2 μg of SP were spotted directly onto the NP1 arrays. Prior to adding of the proteins, chips were pre-wet with PBS. Arrays were incubated at room temperature until the protein was absorbed, which took approximately 5 to 10 minutes. […] Chips were immediately analyzed using linear, time-lag focusing laser desorption/ionization SELDI-time-of-flight mass spectrometer (Model PBS II). Accurate mass was determined by collecting approximately 150 averaged laser shots. […]
# HGFIN-SP interaction was studied by pre-treating the PS1 chips with 50% acetonitrile for 3 minutes. […] CHCA was applied and the non-covalently bound SP was detected with the SELDI-Time of Flight Mass spectrometer as described for the profiling studies for HGFIN.
# Protein-protein interactions were performed with the PS1 protein chip since this chip was determined to covalently bind HGFIN. SP was added to the chip and then detected with the SELDI system.
# T1 sequence (P02751 627-702 limits assumed): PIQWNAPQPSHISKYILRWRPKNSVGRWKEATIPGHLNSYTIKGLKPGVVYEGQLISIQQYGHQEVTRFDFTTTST
compound,measurement,setting,value
"O=c1[nH]cc(F)c(=O)[nH]1 [5-FU, 5-fluorouracil]",response of cancer stem cells to the drug,[1],resistant
Substance P [SP],SP detected on FN-IIIC-coated PS1 chip (SELDI),[2],single peak at ˜13000 Da
same,non-covalently bound SP detected on HGFIN-coated PS1 chip (SELDI),HGFIN,single peak at ˜13000 Da
